The Human Domainome abundance scans (Beltran et al. 2025)
± gives the uncertainty stated by the source.

B1: Activity-dependent neuroprotector homeobox protein, residues 770 to 810; numbered along this chain, Q9H2P0 (parent)
chain: FLTKYFNKQPYPTRREIEKLAASLWLWKSDIASHFSNKRKK

Variants of: B1
Assay: abundance fitness (aPCA) (normalised: wild type 0, dead -1); higher = more abundant; growth selection in yeast, the domain comes from the species named
Conditions: Homo sapiens

Variant	abundance fitness
FLTKYFNKQPYPTFREIEKLAASLWLWKSDIASHFSNKRKK [R14F]	-0.392 ± 0.14
FLTKYFNKQPYPTKREIEKLAASLWLWKSDIASHFSNKRKK [R14K]	-0.048 ± 0.27
FLTKYFNKQPYPTPREIEKLAASLWLWKSDIASHFSNKRKK [R14P]	-0.391 ± 0.14
FLTKYFNKQPYPTLREIEKLAASLWLWKSDIASHFSNKRKK [R14L]	-0.14 ± 0.081
FLTKYFNKQPYPTHREIEKLAASLWLWKSDIASHFSNKRKK [R14H]	-0.514 ± 0.42
FLTKYFNKQPYPTAREIEKLAASLWLWKSDIASHFSNKRKK [R14A]	-0.595 ± 0.22
FLTKYFNKQPYPTQREIEKLAASLWLWKSDIASHFSNKRKK [R14Q]	-0.265 ± 0.14
FLTKYFNKQPYPTMREIEKLAASLWLWKSDIASHFSNKRKK [R14M]	-0.028 ± 0.12
FLTKYFNKQPYPTSREIEKLAASLWLWKSDIASHFSNKRKK [R14S]	-0.387 ± 0.072
FLTKYFNKQPYPTYREIEKLAASLWLWKSDIASHFSNKRKK [R14Y]	-0.13 ± 0.25
FLTKYFNKQPYPTVREIEKLAASLWLWKSDIASHFSNKRKK [R14V]	-0.388 ± 0.13
FLTKYFNKQPYPTDREIEKLAASLWLWKSDIASHFSNKRKK [R14D]	-0.826 ± 0.28
FLTKYFNKQPYPTRREIEKDAASLWLWKSDIASHFSNKRKK [L20D]	-0.322 ± 0.11
FLTKYFNKQPYPTRREIEKWAASLWLWKSDIASHFSNKRKK [L20W]	0.257 ± 0.085
FLTKYFNKQPYPTRREIEKIAASLWLWKSDIASHFSNKRKK [L20I]	-0.005 ± 0.099
FLTKYFNKQPYPTRREIEKEAASLWLWKSDIASHFSNKRKK [L20E]	-1.02 ± 0.25
FLTKYFNKQPYPTRREIEKQAASLWLWKSDIASHFSNKRKK [L20Q]	-0.462 ± 0.096
FLTKYFNKQPYPTRREIEKNAASLWLWKSDIASHFSNKRKK [L20N]	-0.152 ± 0.15
FLTKYFNKQPYPTRREIEKSAASLWLWKSDIASHFSNKRKK [L20S]	-0.243 ± 0.052
FLTKYFNKQPYPTRREIEKFAASLWLWKSDIASHFSNKRKK [L20F]	0.042 ± 0.06
FLTKYFNKQPYPTRREIEKYAASLWLWKSDIASHFSNKRKK [L20Y]	0.064 ± 0.12

Variant	abundance fitness
FLTKYFNKQPYPTRREIEKCAASLWLWKSDIASHFSNKRKK [L20C]	0.124 ± 0.094
FLTKYFNKQPYPTRREIEKGAASLWLWKSDIASHFSNKRKK [L20G]	-0.181 ± 0.069
FLTKYFNKQPYPTRREIEKRAASLWLWKSDIASHFSNKRKK [L20R]	-0.144 ± 0.064
FLTKYFNKQPYPTRREIEKAAASLWLWKSDIASHFSNKRKK [L20A]	-0.038 ± 0.066
FLTKYFNKQPYPTRREIEKHAASLWLWKSDIASHFSNKRKK [L20H]	-0.269 ± 0.085
FLTKYFNKQPYPTRREIEKVAASLWLWKSDIASHFSNKRKK [L20V]	-0.025 ± 0.061
FLTKYFNKQPYPTRREIEKTAASLWLWKSDIASHFSNKRKK [L20T]	-0.106 ± 0.076
FLTKYFNKQPYPTRREIEKPAASLWLWKSDIASHFSNKRKK [L20P]	-0.124 ± 0.057
FLTKYFNKQPYPTRREIEKKAASLWLWKSDIASHFSNKRKK [L20K]	0.036 ± 0.14
FLTKYFNKQPYPTRRRIEKLAASLWLWKSDIASHFSNKRKK [E16R]	0.054 ± 0.051
FLTKYFNKQPYPTRRPIEKLAASLWLWKSDIASHFSNKRKK [E16P]	0.159 ± 0.067
FLTKYFNKQPYPTRRDIEKLAASLWLWKSDIASHFSNKRKK [E16D]	0.016 ± 0.091
FLTKYFNKQPYPTRRMIEKLAASLWLWKSDIASHFSNKRKK [E16M]	-0.04 ± 0.13
FLTKYFNKQPYPTRRVIEKLAASLWLWKSDIASHFSNKRKK [E16V]	-0.168 ± 0.082
FLTKYFNKQPYPTRRTIEKLAASLWLWKSDIASHFSNKRKK [E16T]	-0.065 ± 0.076
FLTKYFNKQPYPTRRYIEKLAASLWLWKSDIASHFSNKRKK [E16Y]	-0.096 ± 0.091
FLTKYFNKQPYPTRRKIEKLAASLWLWKSDIASHFSNKRKK [E16K]	0.095 ± 0.13
FLTKYFNKQPYPTRRLIEKLAASLWLWKSDIASHFSNKRKK [E16L]	-0.194 ± 0.06
FLTKYFNKQPYPTRRSIEKLAASLWLWKSDIASHFSNKRKK [E16S]	-0.036 ± 0.085
FLTKYFNKQPYPTRRHIEKLAASLWLWKSDIASHFSNKRKK [E16H]	-0.133 ± 0.086
FLTKYFNKQPYPTRRAIEKLAASLWLWKSDIASHFSNKRKK [E16A]	-0.14 ± 0.06

Variant	abundance fitness
FLTKYFNKQPYPTRRIIEKLAASLWLWKSDIASHFSNKRKK [E16I]	0.009 ± 0.23
FLTKYFNKQPYPTRRCIEKLAASLWLWKSDIASHFSNKRKK [E16C]	0.082 ± 0.063
FLTKYFNKQPYPTRRWIEKLAASLWLWKSDIASHFSNKRKK [E16W]	0.173 ± 0.089
FLTKYFNKQPYPTRRFIEKLAASLWLWKSDIASHFSNKRKK [E16F]	0.304 ± 0.2
FLTKYFNKQPYPTRQEIEKLAASLWLWKSDIASHFSNKRKK [R15Q]	-0.162 ± 0.085
FLTKYFNKQPYPTRMEIEKLAASLWLWKSDIASHFSNKRKK [R15M]	-0.204 ± 0.069
FLTKYFNKQPYPTRLEIEKLAASLWLWKSDIASHFSNKRKK [R15L]	-0.211 ± 0.058
FLTKYFNKQPYPTRDEIEKLAASLWLWKSDIASHFSNKRKK [R15D]	-0.278 ± 0.15
FLTKYFNKQPYPTRSEIEKLAASLWLWKSDIASHFSNKRKK [R15S]	-0.018 ± 0.053
FLTKYFNKQPYPTRGEIEKLAASLWLWKSDIASHFSNKRKK [R15G]	-0.088 ± 0.061
FLTKYFNKQPYPTRVEIEKLAASLWLWKSDIASHFSNKRKK [R15V]	-0.149 ± 0.13
FLTKYFNKQPYPTRKEIEKLAASLWLWKSDIASHFSNKRKK [R15K]	0.093 ± 0.072
FLTKYFNKQPYPTREEIEKLAASLWLWKSDIASHFSNKRKK [R15E]	-0.02 ± 0.085
FLTKYFNKQPYPTRHEIEKLAASLWLWKSDIASHFSNKRKK [R15H]	-0.384 ± 0.11
FLTKYFNKQPYPTRCEIEKLAASLWLWKSDIASHFSNKRKK [R15C]	-0.182 ± 0.089
FLTKYFNKQPYPTRIEIEKLAASLWLWKSDIASHFSNKRKK [R15I]	-0.252 ± 0.14
FLTKYFNKQPYPTRAEIEKLAASLWLWKSDIASHFSNKRKK [R15A]	0.116 ± 0.052
FLTKYFNKQPYPTRTEIEKLAASLWLWKSDIASHFSNKRKK [R15T]	-0.005 ± 0.066
FLTKYFNKQPYPTRWEIEKLAASLWLWKSDIASHFSNKRKK [R15W]	-0.326 ± 0.12
FLTKYFNKQPYPTRNEIEKLAASLWLWKSDIASHFSNKRKK [R15N]	-0.173 ± 0.26
